According to the RNAGym collection of RNA variant scans (doi:10.1021/acssynbio.7b00057):

B1: Pistol ribozyme (parent)
chain: GGGUCGUUGUUCCAUAAUCGCGUGGAUAUGGCACGCAAGUUUCUACCGGGCACCGUAAAUGUCCGACUGGAGCCGUUCGGGCGGCUAUAAACAGACCUCAGGCCCGAAGCGUGGCGGCACCUGCCGCCGGUGGUAAAAAAGAUCGGAAGAGCACACGUCU

Variants of: B1
Assay: aptazyme ON/OFF ratio, guanine; higher = stronger switching; co-transcriptional cleavage with and without guanine

Compared with U8G G9C U11G C13G, U7A U8C G9U U11A C12G C13U is higher in “aptazyme ON/OFF ratio” value: 1.04 for the first, 1.2 for the second.

Going from U8C G9U U10G U11A C12U C13U to U7A U8G G9C U10A U11C C12U C13U, the “aptazyme ON/OFF ratio” value falls from 1.31 to 1.23.

Going from U8G G9C U11C C12G C13U to U7C U8G G9A U10G U11A C12A C13U, the “aptazyme ON/OFF ratio” value rises from 1.04 to 1.22.

Compared with U7C U8A U10G U11C C12G C13A, U11A C12G is lower in “aptazyme ON/OFF ratio” value: 1.3 for the first, 1.28 for the second.

Going from U8C G9A U10C C12A C13G to U7C U11G C12G, the “aptazyme ON/OFF ratio” value rises from 1.18 to 1.31.

Compared with U7A U8A U10A U11G C13U, U7G U8C U10A U11A C13U is lower in “aptazyme ON/OFF ratio” value: 1.26 for the first, 1.21 for the second.

First: U7C U8A G9U U10A U11G C12A C13U
Second: U7A U8A G9C U10A U11G C12G
The “aptazyme ON/OFF ratio” value of the first is lower: 1.14 for the first, 1.19 for the second.

Going from U8G G9U U11A C13U to U7C U8G G9U U11A C13A, the “aptazyme ON/OFF ratio” value rises from 1.25 to 1.28.

Compared with U8C G9C U11A C12U C13G, U8A G9C U10A U11G C12G C13G is higher in “aptazyme ON/OFF ratio” value: 1.12 for the first, 1.16 for the second.

Going from U7G U8G U10C U11G C12U to U7A U8A U10A U11G C12U C13G, the “aptazyme ON/OFF ratio” value falls from 1.23 to 1.15.

Compared with U7C U8G U11C C12U, G9A U10A U11A C12G C13G is lower in “aptazyme ON/OFF ratio” value: 1.28 for the first, 1.2 for the second.

Going from U7C U8G G9C U10C U11A C12U C13U to U7C U10A U11C C12U C13U, the “aptazyme ON/OFF ratio” value falls from 1.08 to 1.05.

Going from U7A U8A U10C U11G C13U to U8A G9A U10G U11C C12A C13U, the “aptazyme ON/OFF ratio” value falls from 1.17 to 1.16.

First: U8C U10G U11G C12A
Second: U7C U8G G9C U10G U11G C12G C13U
The “aptazyme ON/OFF ratio” value of the first is higher: 1.18 for the first, 1.15 for the second.

First: U8G G9C U10G C12A C13U
Second: U7G G9C U10G U11G C12U C13G
The “aptazyme ON/OFF ratio” value of the first is higher: 1.15 for the first, 1.1 for the second.

Compared with U8A G9A U10C U11A C12U C13G, U7A U8G G9U U10C U11A C12U C13A is higher in “aptazyme ON/OFF ratio” value: 1.21 for the first, 1.41 for the second.

Going from U7A U8C G9U U10G C13A to U7A U8C G9U U10G C13G, the “aptazyme ON/OFF ratio” value falls from 1.34 to 1.16.

Going from U8A U10G U11G C12A C13G to U7A U8G G9A U10C U11G C12A, the “aptazyme ON/OFF ratio” value falls from 1.15 to 1.12.

Going from U7C G9U to U7G U8G G9A U11C C12G, the “aptazyme ON/OFF ratio” value rises from 1.05 to 1.33.

U7A U8A U10A C12A C13G and G9C U10C U11G C12A C13G are the same in “aptazyme ON/OFF ratio” value: 1.03 for the first, 1.03 for the second.

Going from U8C G9C U10C C12U C13G to G9C U11C C12G C13G, the “aptazyme ON/OFF ratio” value rises from 1.07 to 1.09.

Compared with U8C G9C U10G U11C C12G C13G, U7G U8A C12G C13U is higher in “aptazyme ON/OFF ratio” value: 1.18 for the first, 1.46 for the second.

Compared with U7C U8A G9U U10A C12G, U7A U8A G9U U10G U11C C12G C13U is higher in “aptazyme ON/OFF ratio” value: 1.18 for the first, 1.24 for the second.

First: U7C G9C U10G C12A C13G
Second: U7C U8G U10C U11G C12G
The “aptazyme ON/OFF ratio” value of the first is lower: 1.14 for the first, 1.32 for the second.

First: U7C U8A U11A C12G
Second: U7C U8C G9A U10C U11C C12U
The “aptazyme ON/OFF ratio” value of the first is lower: 1.09 for the first, 1.41 for the second.

Going from U7C U10A C12U C13U to U7A U8A G9A U10G U11G C12A C13A, the “aptazyme ON/OFF ratio” value falls from 1.35 to 1.2.

Going from U7C U8C G9C U10C U11A C13U to U7A G9U U10A C12U, the “aptazyme ON/OFF ratio” value rises from 1.05 to 1.22.

First: U8C G9C U10A U11G C12A C13A
Second: U7G G9C U10G U11G C12U
The “aptazyme ON/OFF ratio” value of the first is lower: 1.16 for the first, 1.32 for the second.

Going from U7G U10C U11C C12A C13A to G9C U10G U11G C12G, the “aptazyme ON/OFF ratio” value rises from 1.08 to 1.16.

Going from U8G G9C U10A U11G C13A to U8A U10C U11A, the “aptazyme ON/OFF ratio” value rises from 1.08 to 1.15.

Compared with U7A U8A G9C U10A U11G, U7C G9U U10C C12G C13U is lower in “aptazyme ON/OFF ratio” value: 1.24 for the first, 1.07 for the second.

Going from G9C U10A U11G C12U C13A to U7A U8G G9U U11C C12G C13A, the “aptazyme ON/OFF ratio” value rises from 1.08 to 1.16.

First: U7G U8C U10C U11C C12A C13G
Second: U8C G9C U11G C12A
The “aptazyme ON/OFF ratio” value of the first is higher: 1.33 for the first, 1.13 for the second.

First: U7C U8A G9C U10C C12A
Second: U7A U8A U10G U11A C12A
The “aptazyme ON/OFF ratio” value of the first is lower: 1.04 for the first, 1.4 for the second.

First: U8G G9U U11C C13G
Second: U11C C12A C13U
The “aptazyme ON/OFF ratio” value of the first is lower: 1.03 for the first, 1.31 for the second.

Going from U7C U8C U10A U11G C12G C13U to U7G G9A U11A C12U C13A, the “aptazyme ON/OFF ratio” value rises from 1.14 to 1.16.

Going from U7C U8C G9A C12A to U7C U8A G9C U10A U11A C12G C13G, the “aptazyme ON/OFF ratio” value falls from 1.51 to 1.12.

Compared with U7G U8A G9U U11A C12U C13A, U7A U8C G9C U10C C12U C13U is higher in “aptazyme ON/OFF ratio” value: 1.02 for the first, 1.04 for the second.

First: U7G U8C G9A U10A C12G C13U
Second: U7A U8C U11C C12U C13U
The “aptazyme ON/OFF ratio” value of the first is lower: 1.15 for the first, 1.29 for the second.

First: U7G U8G G9U U10A C12G
Second: U7G U8C G9C U10A U11A C12G C13A
The “aptazyme ON/OFF ratio” value of the first is higher: 1.21 for the first, 1.1 for the second.

First: U8C U10C U11A C13G
Second: G9A U10G U11C C12A C13U
The “aptazyme ON/OFF ratio” value of the first is lower: 1.23 for the first, 1.25 for the second.

For U7G U8A G9U U10G C12A, the “aptazyme ON/OFF ratio” value was 1.09.
